Assay [1] has as its target (glycan chain)--(N-acetylmannosamine)-<azide-DBCO>-ARPDGG. As to the kind of experiment: flow cytometry on Jurkat cells pre-incubated with AzNAM and treated with Db1 peptide; DMSO-control cells treated with Db1 printed as 'Geo. Mean = 1.4'. In general terms: Flow cytometry measures light scatter and fluorescence of single cells or particles in a stream.
Assay [2] deals with T1, Az3db1 (also: triazole at chain A 9 to a chain's N-terminus).
T1 construct: Two synthetic peptides joined through the azide-DBCO click product; conversion to the click product was >=70%; also called click product of peptides Az3 and db1; original selection peptide
T1 peptide 1: Biotin-SGGGERTHK(azide)
T1 peptide 2: {DBCO′}-ARPDGG
Kind of assay: ELISA-based competition in solution by the method of Friguet et al.; average of four independent determinations. In general terms: ELISA stands for enzyme-linked immunosorbent assay.

Assay [3] concerns the target T1, Az3db1. Kind of assay: competition ELISA after Friguet, plot of Ao/(Ao-A) against 1/a0 with soluble Az3Db1 competitor; one single determination. How it is done:
The binding affinity of IgG1-51 antibody towards Az3db1 was measured in an ELISA-based format by the method of Friguet et al. (1985), to yield the dissociation constant (KD) from a specific data plot. Because the total concentration of free competitor in these studies is large compared to the concentration of antibody (antibody concentration ˜0.1 nm), the simplification of the Scatchard-Klotz equation as derived by Friguet et al. was used, as: […]

Assay [4] has as its target T2, db1.
T2 construct: Unclicked precursor of Az3db1; also called DBCO-ARPDGG; db1 half-peptide
T2 peptide: {DBCO′}-ARPDGG
Kind of assay: phage ELISA, scFv displayed on M13.

For assay [5], the target named is T3, Az3.
T3 construct: Unclicked precursor of Az3db1; also called azide-peptide Az3; single half-peptide
T3 peptide: Biotin-SGGGERTHK(azide)
As to the kind of experiment: phage ELISA, scFv displayed on M13.

The target in assay [6] is T2, db1. As to the kind of experiment: competition ELISA: ratio of response slopes on immobilised Az3db1 without competitor / with soluble Db1. The protocol: (§1) We ranked the five scFv proteins 1S-5S in terms of their desired specificities and binding affinities. For this purpose, a series of ELISA-based competition assays were established, where scFvs were preincubated in solution with designated competitors before testing against immobilized target Az3db1 peptide. These included Az3db1 itself, and its constituent peptides Az3 and db1, in large (×100-fold) molar excess over the scFv proteins.
All ELISA assays used biotinylated target peptides for immobilized on streptavidin (SA) plates. For testing responses against Az3db1 (FIG. 3), a stock of the click product between peptides Az3 and db1 was made by incubating both together at 4.5 mM concentration in PBS pH 7.4 for 16 hr, conditions resulting in ≥70% conversion to the click product (FIG. 4). The resulting Az3db1 was positioned in an SA plate by incubating appropriate wells (after initial plate washing) with 100 μl of 1 pmol/μl of peptide. Dilutions of scFvs or IgG1-51 were made in PBS with 10 mg/ml bovine serum albumin (BSA) to levels typically beginning at 50 pg/μl, then in extended 2-fold dilution series from that point. […] After extensive washing, signals based on HRP activity from standard chromogenic substrates were read in a plate reader and collated.

Assay [7] addresses T3, Az3. As to the kind of experiment: competition ELISA: ratio of response slopes on immobilised Az3db1 without competitor / with soluble Az3. The protocol: as §1
All ELISA assays used biotinylated target peptides for immobilized on streptavidin (SA) plates. For testing responses against Az3db1 (FIG. 3), a stock of the click product between peptides Az3 and db1 was made by incubating both together at 4.5 mM concentration in PBS pH 7.4 for 16 hr, conditions resulting in ≥70% conversion to the click product (FIG. 4). The resulting Az3db1 was positioned in an SA plate by incubating appropriate wells (after initial plate washing) with 100 μl of 1 pmol/μl of peptide. Dilutions of scFvs or IgG1-51 were made in PBS with 10 mg/ml bovine serum albumin (BSA) to levels typically beginning at 50 pg/μl, then in extended 2-fold dilution series from that point. Antibody or scFv dilutions were then incubated with Az3db1 target for 1 hr/room temperature, followed by treatment with appropriate secondary antibody-HRP conjugates (anti-human kappa for IgG1-51, anti-6H hexahistidine for all scFvs). After extensive washing, signals based on HRP activity from standard chromogenic substrates were read in a plate reader and collated.

The text below walks through data of US20240002536A1 (GENERAL HOSPITAL, published 2024).

Primed or numbered codes have the meaning given here. Ends that are not written are not given here. * marks the point of attachment. Biotin = O=C1N[C@H]2[C@H](CS[C@H]2CCCCC(=O)*)N1; DBCO′ = dibenzocyclooctyne

B1: IgG1-51 (antibody, V domains shown)
VH: QMQLVQSGSELKKPGASVKVSCKASGYTFTSYAMNWVRQAPGQGLEWMGWINTNTGNPTYAQGFTGRFVFSLDTSVSTAYLQISSLKAEDTAVYYCARFDRPRGAFDIWGQGTLVTVSS
VL: QAVLTQPSSLSASPGASASLTCTLRSGINVGTYRIYWYQQKPGSPPQYLLRYKSDSDKQQGSGVPSRFSGSKDASANAGILLISGLQSEDEADYYCMIWHSSAWVFGGGTKLTVLG
notes: VH and VL of scFv-51 fused in frame to human Cgamma1 and Ckappa and co-expressed in Hek293 cells; also called Ab51; antibody 51; not shown: Human Gamma1 C-region, Uniprot code P01857.1; Human Kappa C-region, Uniprot code P01834.2
What is called Kd is the constant that tells how readily two partners part at equilibrium. Low values mean tighter binding, high ones weaker binding. B1: the geometric mean fluorescence (Geo. Mean) in assay [1] stood at 226. For the same molecule, the Kd with Az3db1 [2] worked out at 160 nM; in the assay with Az3db1 [3], 175 nM.

B2: scFv-69 (scFv)
scFv: QVQLVQSGSELKKPGASVKVSCKASGYTFTSYAMNWVRQAPGQGLEWMGWINTNTGNPTYAQGFTGRFVFSLDTSVSTAYLQISSLKAEDTAVYYCARGAAGVFDIWGKGTTVTVSSGGGGSGGGGSGGGGSQAVLTQPSSLSASPGASASLTCTLRSGINVGTYNIYWYQQKPGSPPQFLLRYKSDSDKQQVSGVPSRFSGSKDGSANAGILLISGLQSEDEADYYCMIWHSSAWVFGGGTKLTVLG
notes: VH-(GGGGS)3 linker-VL from the human phage library HuScL-6; It was also expressed as an E. coli hexahistidine (6H) fusion
Regarding B2, the binding result with db1 [4] and with Az3 [5] was “no binding” in each case.

B3: scFv-44 (scFv)
scFv: QVQLVQSGAEVKKPGSSVKVSCKASGYTFADYAINWVRQAPGQGLEWMGWINTNTGNPTYAQGFTGRFVFSLDTSVSTAYLQISSLEAEDTAVYYCARHFSGYSLDAVDIWGQGTLVTVSSGGGGSGGGGSGGGGSQAVLTQPSSLSASPGTSASLTCTLRSDINVGAYRIYWYKHKAGSPPQFLLRFKSDSDNYRGSGVPGRFSGSKDASANAGILLISGLQSEDEADYYCAIWHSSTWVFGGGTKLTVLG
notes: VH-(GGGGS)3 linker-VL from the human phage library HuScL-6; Protein ELISAs used an E. coli hexahistidine (6H) fusion; also called scFv-3S; 3S
B3: the binding result in the assay with db1 [6] and in the assay with Az3 [7] was “no binding” in each case.

B4: scFv-36 (scFv)
scFv: QVQLVQSGAEVKKPGASVKVSCKASGYTFTSYGISWVRQAPGQGLEWMGWINTNTGNPTYAQGFTGRSVFSLDTSVSTAYLQISSLKAEDSAVYYCARHSDDGAFDIWGKGTMVTVSSGGGGSGGGGSGGGGSQAVLTQPSSLSASPGASASLTCTLRSGINVGTYRIYWYQQKPGSPPQYLLRYKSDSDKQQGSGVPSRFSGSKDASANAGTLLISGLQSEDEADYYCAIWHSSTWVFGGGTKVTVLG
notes: VH-(GGGGS)3 linker-VL from the human phage library HuScL-6; Protein ELISAs used an E. coli hexahistidine (6H) fusion; also called scFv-2S; 2S
Consider B4, for which the binding result in the assay with Az3 [7] is given as “no binding”.

B5: scFv-64 (scFv)
scFv: EVQLVESGSELKKPGASVKVSCKASGYTFTSYAINWVRQAPGQGLEWMGWINTNTGNPTYAQGFTGRFVFSLDTSVSTAYLQISSLKAEDTAVYYCARGYYDSSGYNFDYWGKGTLVTVSSGGGGSGGGGSGGGGSQAVLTQPSSLSASPGASASLTCTLRSGINVGTYRIYWYQQKPGSPPQYLLRYKSDSDKQQGSGVPSRFSGSKDASANAGILLISGLQSEDEADYYCMIWHSSAWVFGGGTKLTVLG
notes: as for B2
For B5, the binding result with db1 [4] and with Az3 [5] was “no binding” in each case.

B6: scFv-72 (scFv)
scFv: EVQLVESGAEVKKPGASVKVSCKASGYTFTSYAMNWVRQAPGQGLEWMGWINTNTGNPTYAQGFTGRFVFSLDTSVSTAYLQISSLKAEDTAVYYCARQRDYRMDVWGQGTMVTVSSGGGGSGGGGSGGGGSQAVLTQPSSLSASPGASASLTCTLRSGINVGTYRIYWYQQKPGSPPQYLLRYKSDSDKQQASGVPSRFSGSKDASANAGILLISGLQSEDEADYYCLIWHNNAWVFGGGTKVTVLG
notes: VH-(GGGGS)3 linker-VL from the human phage library HuScL-6; expression as a protein failed
For the molecule B6, the binding result in the assay with db1 [4] and in the assay with Az3 [5] was “no binding” throughout.

B7: scFv-18 (scFv)
scFv: QVQLVESGSELKKPGASVKVSCKASGYTFTNYAMNWVRQAPGQGLEWLGWINTNTGNPTYAQGFTGRFVFSLDTSVSTAYLQISSLKAEDTAVYYCARGSLGGTFDYWGQGTPVTVSSGGGGSGGGGSGGGGSQAVLTQPSSLSASPGASASLTCTLRSGINVGTYRIYWYQQKPGSPPQYLLRYKSDSDKHQDSGVPSRFSGSTDASANAGILLISGLQSEDEADYYCMIWHSRAWVFGGGTRGEIKR
notes: VH-(GGGGS)3 linker-VL from the human phage library HuScL-6; Protein ELISAs used an E. coli hexahistidine (6H) fusion; also called scFv-1S; 1S
Regarding B7, the binding result with db1 [6] and with Az3 [7] was “no binding” in each case.

B8: scFv-83 (scFv)
scFv: QVQLVQSGAEVKKPGASVKVSCKASGYSFTSYAMNWVRQAPGQGLEWMGWINTNTGNPMYAQGFTGRFVFSLDTSVSTAYLEVSSLKAEDTAVYFCARYNAMDVWGQGTTVTVSSGGGGSGGGGSGGGGSQAVLTQPSSLSASPGASASLTCTLRSGINVGTYRIYWYQQKPGSPPQYLLRYKSDSDKQQGSGVPSRFSGSKDASANAGILLISGLQSEDEADYYCMIWHSSAWVFGGGTKVTVLG
notes: as for B6
As for B8, the binding result in the assay with db1 [4] and with Az3 [5] was “no binding” throughout.
